Changes are numbered by the printed parent chain. Names may count otherwise. “And” between values parts separate entries of the source, which are not always exact repeats. Equal entries are not always repeated.
T1: HerA (Saccharolobus solfataricus, UniProt Q97WG8)
T1 construct: recombinant, heat-treated, heparin and Q columns; homo-hexamer and homo-heptamer (heptamer dominant when apo)
T1 sequence (Q97WG8 1-500): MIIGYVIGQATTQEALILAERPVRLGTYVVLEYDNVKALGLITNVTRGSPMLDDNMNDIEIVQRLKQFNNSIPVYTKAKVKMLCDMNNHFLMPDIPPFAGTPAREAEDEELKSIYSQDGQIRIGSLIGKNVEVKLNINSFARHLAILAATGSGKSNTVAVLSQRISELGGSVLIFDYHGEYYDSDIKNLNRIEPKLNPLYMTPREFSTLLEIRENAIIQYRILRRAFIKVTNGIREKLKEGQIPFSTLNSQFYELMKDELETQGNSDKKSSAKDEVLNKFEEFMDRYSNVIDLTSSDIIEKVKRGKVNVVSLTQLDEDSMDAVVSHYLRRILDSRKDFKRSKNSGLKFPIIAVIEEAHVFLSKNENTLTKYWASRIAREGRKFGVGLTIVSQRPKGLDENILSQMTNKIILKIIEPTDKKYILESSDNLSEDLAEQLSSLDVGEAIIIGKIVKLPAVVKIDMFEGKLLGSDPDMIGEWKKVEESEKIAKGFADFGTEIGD

T2: HerA;NurA H306A (thermophilic archaeon, Sulfolobus …, UniProt Q97WG8;Q97WH1 1-500;1-339, |H306A)
T2 sequence 1: T1 sequence (Q97WG8 1-500)
T2 sequence 2: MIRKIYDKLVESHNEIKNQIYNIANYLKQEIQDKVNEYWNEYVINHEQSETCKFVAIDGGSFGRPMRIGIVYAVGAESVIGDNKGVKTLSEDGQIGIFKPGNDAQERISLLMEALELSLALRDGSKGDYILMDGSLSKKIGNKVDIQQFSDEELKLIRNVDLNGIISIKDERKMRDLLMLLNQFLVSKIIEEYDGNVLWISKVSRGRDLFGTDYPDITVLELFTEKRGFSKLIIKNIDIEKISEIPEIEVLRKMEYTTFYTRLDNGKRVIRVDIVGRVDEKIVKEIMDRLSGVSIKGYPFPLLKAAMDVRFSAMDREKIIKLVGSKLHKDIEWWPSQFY

T3: HerA (thermophilic archaeon, Sulfolobus …, UniProt Q97WG8 1-500)
T3 sequence: T1 sequence (Q97WG8 1-500)

T4: HerA;NurA (thermophilic archaeon, Sulfolobus …, UniProt Q97WG8;Q97WH1 1-500;1-339, |)
T4 sequence 1: T1 sequence (Q97WG8 1-500)
T4 sequence 2: T2 sequence 2 with A306H

T5: HerA K154A (thermophilic archaeon, Sulfolobus …, UniProt Q97WG8 1-500, K154A)
T5 sequence: T1 sequence (Q97WG8 1-500) with K154A

B1: NurA nuclease, wild type (Sulfolobus solfataricus) (enzyme, S. solfataricus)
chain: T2 sequence 2 with A306H
notes: NurA nuclease of the thermophilic archaeon Sulfolobus solfataricus; Homodimer; No tag is named in the purification; also called NurA^WT; NurA dimer; source: cells lysed by sonication, lysate heated at 70°C, purified (Heparin HP, HiTrap Q HP)
B2: NurA H306A, nuclease-inactive mutant (Sulfolobus solfataricus) (enzyme, S. solfataricus)
chain: T2 sequence 2
notes: NurA nuclease of Sulfolobus solfataricus with H306A; Made to prevent dsDNA degradation in the HerA-NurA-dsDNA complex; source: cells lysed by sonication, lysate heated at 70°C, purified (Heparin HP, HiTrap Q HP)
B3: HerA helicase, wild type (Sulfolobus solfataricus) (enzyme, S. solfataricus)
chain: T1 sequence (Q97WG8 1-500)
notes: HerA helicase of the thermophilic archaeon Sulfolobus solfataricus; In solution a mix of hexamer and heptamer; the hexamer is the form found with NurA; No tag is named in the purification; Expression and constructs may be described in the supplementary materials and methods; also called apo-HerA; wild-type HerA; source: cells lysed by sonication, lysate heated at 70°C, purified (Heparin HP, …)
B4: 5'-fluorescein 25 bp dsDNA (dsDNA)
DNA 1: GTAGTCCGGACGACAAACGCCGACT
DNA 2: AGTCGGCGTTTGTCGTCCGGACTAC
B5: 25 bp dsDNA (dsDNA)
DNA 1: GTAGTCCGGACGACAAACGCCGACT
DNA 2: AGTCGGCGTTTGTCGTCCGGACTAC

Experiments:
[1] = target: T1, HerA; experiment: native mass spectrometry titration; assay type: binding; conditions: 2 mM MgCl2, room temperature 1 h, 30 μM monomer, then 200 mM ammonium acetate, no dsDNA
[2] = target: T6, HerA–NurA (Saccharolobus solfataricus, UniProt Q97WG8); experiment: native mass spectrometry; assay type: binding; conditions: nuclease-active complex with 25 bp dsDNA
T6 construct: purified recombinant HerA hexamer with NurA dimer; with DNA double-strand break repair nuclease NurA
T6 sequence (Q97WH1 whole entry, one chain of several, further chain): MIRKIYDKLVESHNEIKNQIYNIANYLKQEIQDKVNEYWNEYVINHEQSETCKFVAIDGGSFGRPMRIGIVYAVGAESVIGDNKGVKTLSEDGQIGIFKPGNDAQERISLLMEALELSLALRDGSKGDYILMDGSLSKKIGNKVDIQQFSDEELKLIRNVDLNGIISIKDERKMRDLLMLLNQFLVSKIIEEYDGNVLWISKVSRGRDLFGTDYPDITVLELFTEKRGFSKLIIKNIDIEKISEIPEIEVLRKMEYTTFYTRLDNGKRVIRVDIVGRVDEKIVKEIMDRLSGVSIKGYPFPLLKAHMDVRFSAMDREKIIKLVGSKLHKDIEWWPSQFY

[3] = target: the molecule itself; experiment: native MS; HerA incubated with NurA (2:3 molar ratio of monomers), no dsDNA, no nucleotide, 200 mM ammonium acetate
[4] = target: B3; experiment: as above; conditions: both partners purified
[5] = target: B3; experiment: native MS; HerA incubated with NurA and a 25 bp blunt-ended dsDNA (protein and DNA 1:1, 30 min at room temperature), no nucleotide, 200 mM ammonium acetate; conditions: both partners purified
[6] = target: the molecule itself; experiment: native MS; HerA alone, nucleotide-free (apo), 200 mM ammonium acetate pH 7.0-7.5, nano electrospray; relative intensities by UniDec
[7] = target: T2, HerA;NurA H306A; experiment: fluorescence anisotropy; no nucleotide; Hill fit; monomeric HerA concentration; FA: 5 nM dsDNA, 100 mM NaCl, 20 mM Hepes-NaOH pH 8.0, 30 min room temperature (with nucleotide: 2 mM plus 5 mM MgCl2); native MS: 200 mM ammonium acetate pH 7.0-7.5, 1:1 protein:DNA, 30 min room temperature; conditions: protein: recombinant;recombinant; tags: ;; chain copies: 6;2; label: 5'-fluorescein on strand 1; blunt
[8] = target: T3, HerA; experiment: fluorescence anisotropy; 2 mM ATPgS, 5 mM MgCl2; HerA monomer concentration; FA: 5 nM dsDNA, 100 mM NaCl, 20 mM Hepes-NaOH pH 8.0, 30 min room temperature (with nucleotide: 2 mM plus 5 mM MgCl2); native MS: 200 mM ammonium acetate pH 7.0-7.5, 1:1 protein:DNA, 30 min room temperature; conditions: protein: recombinant; chain copies: 6; label: 5'-fluorescein on strand 1; blunt
[9] = target: T3, HerA; experiment: fluorescence anisotropy; no nucleotide; HerA monomer concentration; FA: 5 nM dsDNA, 100 mM NaCl, 20 mM Hepes-NaOH pH 8.0, 30 min room temperature (with nucleotide: 2 mM plus 5 mM MgCl2); native MS: 200 mM ammonium acetate pH 7.0-7.5, 1:1 protein:DNA, 30 min room temperature; conditions: protein: recombinant; chain copies: 6; label: 5'-fluorescein on strand 1; blunt
[10] = target: T4, HerA;NurA; experiment: native MS; no nucleotide; dsDNA intact; FA: 5 nM dsDNA, 100 mM NaCl, 20 mM Hepes-NaOH pH 8.0, 30 min room temperature (with nucleotide: 2 mM plus 5 mM MgCl2); native MS: 200 mM ammonium acetate pH 7.0-7.5, 1:1 protein:DNA, 30 min room temperature; conditions: protein: recombinant;recombinant; tags: ;; chain copies: 6;2; blunt
[11] = target: T5, HerA K154A; experiment: native MS; FA: 5 nM dsDNA, 100 mM NaCl, 20 mM Hepes-NaOH pH 8.0, 30 min room temperature (with nucleotide: 2 mM plus 5 mM MgCl2); native MS: 200 mM ammonium acetate pH 7.0-7.5, 1:1 protein:DNA, 30 min room temperature; conditions: protein: recombinant; chain copies: 6; blunt

Nc1ncnc2c1ncn2[C@@H]1O[C@H](COP(=O)(O)OP(=O)(O)O)[C@@H](O)[C@H]1O [ADP]
native mass spectrometry titration ([1]; 1 mM ADP spectrum): increase in hexameric HerA population was found when titrating HerA with increasing concentrations of ADP | native mass spectrometry ([2]; ATP-γ-S pre-bound): determined the number of ADP simultaneously bound to HerA–NurA–dsDNA

Nc1ncnc2c1ncn2[C@@H]1O[C@H](COP(=O)(O)OP(=O)(O)OP(O)(O)=S)[C@@H](O)[C@H]1O [ATP-γ-S]
native mass spectrometry titration [1]: the HerA hexamer binds all six ATP-γ-S simultaneously | native mass spectrometry ([2]; mixed with ADP): nuclease-active HerA–NurA–dsDNA complex was incubated with ATP-γ-S

B1
stoichiometry N [3]: 2 | binding result [4]: binds

B2
binding result [5]: binds

B3
abundance of the heptamer over the hexamer [6]: ~10 fold | stoichiometry N [6]: 6 and 7

B4
Kd [7]: 0.51 ± 0.0304 µM | Kd [8]: 3.22 ± 0.27 µM | Kd [9]: 4.85 ± 0.47 µM

B5
binding result [10]: binds | binding result [11]: no binding

Reference: article PMC5715905, “Mechanistic insight into the assembly of the HerA–NurA helicase–nuclease DNA end resection complex” (Nucleic Acids Research, 2017)
